Laboratory results from US12325747 (University of Texas, dated 2025).
Read-outs that look alike come from different tables or passages of the source.

Legend:
PD-L1 on CHO-PD-L1 cells [1] = molecular target: T1, PD-L1 on CHO-PD-L1 cells (human, UniProt Q9NZQ7 19-290); assay: cell-based or functional assay
mouse PD-L1 protein [2] = molecular target: T2, mouse PD-L1 protein (mouse, UniProt Q9EP73 19-238, limits assumed); assay: lower panel, MFI against Ab (nM): flow cytometry on CHO cells with murine PD-L1. The panel has no title; murine PD-L1 follows from paragraph 175
T2 construct: also called murine PD-L1
Method: (§1) Antibody Activity. Varying concentrations of PD-L1 antibodies, with human IgG1 backbones, were added to CHO cells expressing either human or murine PD-L1 (CHO-PD-L1 cells). Binding was detected by addition of anti-human IgG1 secondary antibody conjugated to phycoerythrin. FACS analysis was performed, detecting phycoerythrin to determine fluorescence activity at a variety of antibody concentrations. EC50 was calculated using GraphPad Prism® software.

PD-L1 on CHO-PD-L1 cells [3] = molecular target: T1, PD-L1 on CHO-PD-L1 cells; assay: upper panel, MFI against Ab (nM): flow cytometry on CHO cells with PD-L1, anti-human IgG1-PE secondary. The panel has no title; human PD-L1 follows from paragraph 175 (all three bind human PD-L1)
Method: as §1

Cyno PD-L1-Fc = Cyno PD-L1-Fc (cyno, UniProt G7PSE7 19-238); assay: ForteBio Octet BLI; IgG on AHQ sensors, 100 nM antigen; avid
Method: (§2) ForteBio K_D measurements—ForteBio affinity measurements were performed on an Octet RED384 generally as previously described (see, e.g., Estep et al., Mabs 5(2), 270-278 (2013)). Briefly, ForteBio affinity measurements were performed by loading IgGs on-line onto AHQ sensors. Sensors were equilibrated off-line in assay buffer for 30 min and then monitored on-line for 60 seconds for baseline establishment. Sensors with loaded IgGs were exposed to 100 nM antigen for 3 minutes, and afterwards were transferred to assay buffer for 3 min for off-rate measurement. For monovalent affinity assessment Fabs were used instead of IgGs. For this assessment the unbiotinylated Fc fusion antigen was loaded on-line onto the AHQ sensors. Sensors were equilibrated off-line in assay buffer for 30 min and then monitored on-line for 60 seconds for baseline establishment. Sensors with loaded antigen were exposed to 100 nM Fab for 3 minutes, and afterwards they were transferred to assay buffer for 3 min for off-rate measurement. All kinetics were analyzed using the 1:1 binding model.

Mouse PD-L1-Fc = molecular target: T3, Mouse PD-L1-Fc (mouse, UniProt Q9EP73 19-238, limits assumed); assay: as above
T3 construct: not shown: Fc part, not described
Method: as §2

Human PD-L1-Fc [4] = molecular target: T4, Human PD-L1-Fc (human, UniProt Q9NZQ7 19-238); assay: as above
T4 construct: also called Fc fusion antigen; not shown: Fc part, not described
Method: as §2

Human PD-L1-HIS [5] = molecular target: T5, Human PD-L1-HIS (human, UniProt Q9NZQ7 19-238); assay: Octet tandem competition on HIS-tagged human PD-L1; competitor Avelumab
T5 construct: also called HIS-tagged protein (human PD-L1)
Method: (§3) Epitope binning of PD-L1 antibodies. Binding specificity of a variety of PD-L1 antibodies were compared using a binding competition assay conducted using the ForteBio Octet® platform. Target HIS-tagged protein (human PD-L1) is loaded onto pre-charged Nickel NTA Biosensors at 1 μg/mL. The first Ab1 is saturated on the target-loaded biosensor at 100 nM, and a reference (bufer only) well is included to determine maximal Ab2 binding signal. The second Ab2 is screened for binding signal also at 100 nM, and Ab1 is included to determine background self-blocking signal. Data Analysis HT 9.0 software is used to generate a matrix of raw signal response of Ab2 binding that is then transformed to be expressed as a percentage of the unblocked Ab2 binding signal. Less than 15% response is considered competitive blocking.

Human PD-L1-HIS [6] = molecular target: T5, Human PD-L1-HIS; assay: Octet tandem competition on HIS-tagged human PD-L1; competitor Atezolizumab
Method: as §3

Human PD-L1-HIS [7] = molecular target: T5, Human PD-L1-HIS; assay: ForteBio Octet BLI; IgG on AHQ sensors, 100 nM antigen; column head says Avid
Method: as §2

Human PD-L1-HIS [8] = molecular target: T5, Human PD-L1-HIS; assay: Octet tandem competition on HIS-tagged human PD-L1; competitor Durvalumab
Method: as §3

Human PD-L1-Fc [9] = molecular target: T4, Human PD-L1-Fc; assay: ForteBio Octet BLI; Fc fusion antigen on AHQ sensors, 100 nM Fab; monovalent
Method: as §2

mouse PD-L1 protein [10] = molecular target: T2, mouse PD-L1 protein; assay: lower panel, MFI against Ab (nM): flow cytometry on CHO cells with murine PD-L1, anti-human IgG1-PE secondary. The panel has no title; murine PD-L1 follows from paragraph 175 (only ADI-20227 binds murine PD-L1 well)
Method: as §1

Human PD-L1-Fc [11] = molecular target: T4, Human PD-L1-Fc; assay: ForteBio Octet BLI (row ForteBio-KD); antigen and unit inferred, taken from Table 5
PD-L1 on CHO-PD-L1 cells [12] = molecular target: T1, PD-L1 on CHO-PD-L1 cells; assay: cell-based or functional assay; remark: listed apart in the source
PD-L1 on CHO-PD-L1 cells [13] = molecular target: T1, PD-L1 on CHO-PD-L1 cells; assay: cell-based or functional assay; remark: listed apart in the source

T1 sequence (Q9NZQ7 19-290 limits assumed): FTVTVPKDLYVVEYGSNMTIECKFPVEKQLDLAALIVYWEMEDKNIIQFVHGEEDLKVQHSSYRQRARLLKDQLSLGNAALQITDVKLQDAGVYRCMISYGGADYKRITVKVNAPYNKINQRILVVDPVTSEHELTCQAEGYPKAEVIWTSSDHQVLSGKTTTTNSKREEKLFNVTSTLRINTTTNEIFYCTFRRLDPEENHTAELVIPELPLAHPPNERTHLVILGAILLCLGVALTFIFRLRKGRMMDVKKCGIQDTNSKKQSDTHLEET
Cyno PD-L1-Fc, sequence (G7PSE7 entry or part of it limits assumed): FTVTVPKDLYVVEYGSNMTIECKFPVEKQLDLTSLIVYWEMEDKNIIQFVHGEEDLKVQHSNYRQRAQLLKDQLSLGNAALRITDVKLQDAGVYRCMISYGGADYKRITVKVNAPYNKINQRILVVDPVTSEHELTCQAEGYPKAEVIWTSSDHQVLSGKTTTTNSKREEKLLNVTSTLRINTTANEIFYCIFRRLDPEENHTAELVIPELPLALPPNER
T3 sequence (Q9EP73 19-238 limits assumed): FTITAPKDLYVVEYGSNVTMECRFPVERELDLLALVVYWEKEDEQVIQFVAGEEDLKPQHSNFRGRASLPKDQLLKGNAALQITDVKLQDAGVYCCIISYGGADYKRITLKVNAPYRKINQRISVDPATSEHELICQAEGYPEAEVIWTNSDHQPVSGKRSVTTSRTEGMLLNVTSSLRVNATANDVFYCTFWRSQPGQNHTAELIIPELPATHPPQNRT
T4 sequence (Q9NZQ7 19-238 limits assumed): as the sequence (G7PSE7 entry or part of it limits assumed) above, with T33A, S34A, N62S, Q68R, R82Q, L173F, A185T, I192T, L215H counted along it
T5 sequence (Q9NZQ7 19-238 limits assumed): as the sequence (G7PSE7 entry or part of it limits assumed) above, with T33A, S34A, N62S, Q68R, R82Q, L173F, A185T, I192T, L215H counted along it
T2 sequence (Q9EP73 19-238 limits assumed): as the sequence (Q9EP73 19-238 limits assumed) above

B1: ADI-20799 (antibody, human IgG1, V domains shown)
VH: QVQLVQSGAEVKKPGASVKVSCKASGYTFTGVYMHWVRQAPGQGLEWMGGIFPIGGTANYAQKFQGRVTITADESTSTAYMELSSLRSEDTAVYYCARDRTSGALYWGQGTLVTVSS
VL: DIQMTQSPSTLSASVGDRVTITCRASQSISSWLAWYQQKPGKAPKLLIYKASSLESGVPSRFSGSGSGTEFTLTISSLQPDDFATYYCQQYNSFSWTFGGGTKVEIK
EC50 (read off the curve) (PD-L1 on CHO-PD-L1 cells [1]): ~0.5 nM
binding result (mouse PD-L1 protein [2]): no binding (tested: about 700 nM)
EC50 (PD-L1 on CHO-PD-L1 cells [3]): 1.31 nM

B2: ADI-16403 (antibody, human IgG1, V domains shown)
VH: EVQLVESGGGLVQPGGSLRLSCAASGFTFSSYWMSWVRQAPGKGLEWVANIKSDGSEKYYVDSVKGRFTISRDNAKNSLYLQMNSLRAEDTAVYYCARVTYWADYMDVWGKGTTVTVSS
VL: DIQMTQSPSTLSASVGDRVTITCRASQSISSWLAWYQQKPGKAPKLLIYKASSLESGVPSRFSGSGSGTEFTLTISSLQPDDFATYYCQQSGSLPPTFGGGTKVEIK
notes: Tested as IgG; also called PD-L1-31; clone family 35
Kd (Cyno PD-L1-Fc): 0.792 nM
binding result (Mouse PD-L1-Fc): no binding (tested: 100 nM)
Kd (Human PD-L1-Fc [4]): 0.317 nM
EC50 (read off the curve) (PD-L1 on CHO-PD-L1 cells [1]): ~2 nM
percentage of the unblocked Ab2 binding signal (Human PD-L1-HIS [5]): 2.39%
percentage of the unblocked Ab2 binding signal (Human PD-L1-HIS [6]): 0.75%
Kd (Human PD-L1-HIS [7]): 0.328 nM
percentage of the unblocked Ab2 binding signal (Human PD-L1-HIS [8]): 1.03%

B3: ADI-16403 Fab (Fab, V domains shown)
VH: EVQLVESGGGLVQPGGSLRLSCAASGFTFSSYWMSWVRQAPGKGLEWVANIKSDGSEKYYVDSVKGRFTISRDNAKNSLYLQMNSLRAEDTAVYYCARVTYWADYMDVWGKGTTVTVSS
VL: DIQMTQSPSTLSASVGDRVTITCRASQSISSWLAWYQQKPGKAPKLLIYKASSLESGVPSRFSGSGSGTEFTLTISSLQPDDFATYYCQQSGSLPPTFGGGTKVEIK
notes: also called Fab of ADI-16403
Kd (Human PD-L1-Fc [9]): 0.935 nM

B4: ADI-20227 (antibody, human IgG1, V domains shown)
VH: QVQLQESGPGLVKPSQTLSLTCTVSGGSIVSGGLYWSWIRQHPGKGLEWIGYIYYAGVTYYNPSLKSRVTISVDTSKNQFSLKLSSVTAADTAVYYCARGPRMGLAGMDVWGQGTTVTVSS
VL: DIQMTQSPSSVSASVGDRVTITCRASQGISSWLAWYQQKPGKAPKLLIYAASSLQSGVPSRFSGSGSGTDFTLTISSLQPEDFATYYCQQANSFPITFGGGTKVEIK
notes: Tested as IgG; also called PD-L1-C1-2; clone family cLC
Kd (Cyno PD-L1-Fc): 0.192 nM
Kd (Mouse PD-L1-Fc): 0.101 nM
Kd (Human PD-L1-Fc [4]): 0.179 nM
EC50 (mouse PD-L1 protein [10]): 1.13 nM
Kd (Human PD-L1-Fc [11]): 0.179 nM
percentage of the unblocked Ab2 binding signal (Human PD-L1-HIS [5]): 0.37%
EC50 for restoration of PD-L1:PD-1 repressed Jurkat T cell activity (row label IC50) (PD-L1 on CHO-PD-L1 cells [12]): 0.295 nM
percentage of the unblocked Ab2 binding signal (Human PD-L1-HIS [6]): -0.52%
EC50 (PD-L1 on CHO-PD-L1 cells [3]): 1.12 nM
percentage of the unblocked Ab2 binding signal (Human PD-L1-HIS [8]): 0.65%

B5: ADI-20227 Fab (Fab, V domains shown)
VH: QVQLQESGPGLVKPSQTLSLTCTVSGGSIVSGGLYWSWIRQHPGKGLEWIGYIYYAGVTYYNPSLKSRVTISVDTSKNQFSLKLSSVTAADTAVYYCARGPRMGLAGMDVWGQGTTVTVSS
VL: DIQMTQSPSSVSASVGDRVTITCRASQGISSWLAWYQQKPGKAPKLLIYAASSLQSGVPSRFSGSGSGTDFTLTISSLQPEDFATYYCQQANSFPITFGGGTKVEIK
Kd (Human PD-L1-Fc [9]): 0.915 nM

B6: ADI-20803 (antibody, human IgG1, V domains shown)
VH: QVQLVQSGAEVKKPGSSVKVSCKASGGTFRLYAISWVRQAPGQGLEWMGSIIPGFGSANYAQKFQGRVTITADESTSTAYMELSSLRSEDTAVYYCARDGGGGTSAYSFDPWGQGTLVTVSS
VL: EIVLTQSPATLSLSPGERATLSCRASQSVSSYLAWYQQKPGQAPRLLIYDASNRATGIPARFSGSGSGTDFTLTISSLEPEDFAVYYCQQSINFPYTFGGGTKVEIK
notes: Tested as IgG; also called PDL1-1-12; PLD1-1-12
Kd (Cyno PD-L1-Fc): 0.196 nM
Kd (Mouse PD-L1-Fc): 5.65 nM
Kd (Human PD-L1-Fc [4]): 0.188 nM
percentage of the unblocked Ab2 binding signal (Human PD-L1-HIS [5]): 3.14%
percentage of the unblocked Ab2 binding signal (Human PD-L1-HIS [6]): 1.86%
Kd (Human PD-L1-HIS [7]): 0.0092 nM
EC50 (read off the curve) (PD-L1 on CHO-PD-L1 cells [13]): ~3 nM
EC50 (PD-L1 on CHO-PD-L1 cells [3]): 0.7 nM
percentage of the unblocked Ab2 binding signal (Human PD-L1-HIS [8]): 2.38%

B7: ADI-20803 Fab (Fab, V domains shown)
VH: QVQLVQSGAEVKKPGSSVKVSCKASGGTFRLYAISWVRQAPGQGLEWMGSIIPGFGSANYAQKFQGRVTITADESTSTAYMELSSLRSEDTAVYYCARDGGGGTSAYSFDPWGQGTLVTVSS
VL: EIVLTQSPATLSLSPGERATLSCRASQSVSSYLAWYQQKPGQAPRLLIYDASNRATGIPARFSGSGSGTDFTLTISSLEPEDFAVYYCQQSINFPYTFGGGTKVEIK
notes: also called Fab of ADI-20803
Kd (Human PD-L1-Fc [9]): 0.226 nM
